Bridges are numbered along the chain shown (N, C = ends). [ ]: non-standard residue; d: D form. 2Nal = N[C@@H](Cc1ccc2ccccc2c1)C(=O)O; Cit = NC(=O)NCCC[C@H](N)C(=O)O
molecular target: human CXCR4 (human, UniProt P61073 1-352); assay: cell-based or functional assay
Sequence (P61073 whole entry): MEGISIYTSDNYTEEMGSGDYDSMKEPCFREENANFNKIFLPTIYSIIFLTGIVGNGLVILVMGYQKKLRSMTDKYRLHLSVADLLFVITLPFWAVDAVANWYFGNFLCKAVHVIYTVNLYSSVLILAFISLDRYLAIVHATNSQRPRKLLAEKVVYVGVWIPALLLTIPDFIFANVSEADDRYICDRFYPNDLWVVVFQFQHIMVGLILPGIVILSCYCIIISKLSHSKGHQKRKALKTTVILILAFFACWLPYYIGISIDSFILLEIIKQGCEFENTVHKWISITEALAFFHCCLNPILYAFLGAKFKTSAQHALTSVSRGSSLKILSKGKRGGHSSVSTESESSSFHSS

Binder	IC50 (nM) Ca2+ assay (method 2)	IC50 (nM) Ca2+ assay (method 1)
cyclo(YR[Cit]CRG[dP]RR[2Nal]CYQE[dP]P) (disulfide 4-11; SMILES N=C(N)NCCC[C@@H]1NC(=O)[C@@H]2CSSC[C@H](NC(=O)[C@H](Cc3ccc4ccccc4c3)NC(=O)[C@H](CCCNC(=N)N)NC(=O)[C@H](CCCNC(=N)N)NC(=O)[C@H]3CCCN3C(=O)CNC1=O)C(=O)N[C@@H](Cc1ccc(O)cc1)C(=O)N[C@@H](CCC(N)=O)C(=O)N[C@@H](CCC(=O)O)C(=O)N1CCC[C@@H]1C(=O)N1CCC[C@H]1C(=O)N[C@@H](Cc1ccc(O)cc1)C(=O)N[C@@H](CCCNC(=N)N)C(=O)N[C@@H](CCCNC(N)=O)C(=O)N2) [Example 61]	4.1 nM	
cyclo(QR[Cit]CRG[dP]RR[2Nal]CYQK[dP]P) (disulfide 4-11; SMILES N=C(N)NCCC[C@@H]1NC(=O)[C@@H]2CSSC[C@H](NC(=O)[C@H](Cc3ccc4ccccc4c3)NC(=O)[C@H](CCCNC(=N)N)NC(=O)[C@H](CCCNC(=N)N)NC(=O)[C@H]3CCCN3C(=O)CNC1=O)C(=O)N[C@@H](Cc1ccc(O)cc1)C(=O)N[C@@H](CCC(N)=O)C(=O)N[C@@H](CCCCN)C(=O)N1CCC[C@@H]1C(=O)N1CCC[C@H]1C(=O)N[C@@H](CCC(N)=O)C(=O)N[C@@H](CCCNC(=N)N)C(=O)N[C@@H](CCCNC(N)=O)C(=O)N2) [Example 62]	1.8 nM	
cyclo(YR[Cit]CRG[dP]RR[2Nal]CYYK[dP]P) (disulfide 4-11; SMILES N=C(N)NCCC[C@@H]1NC(=O)[C@@H]2CSSC[C@H](NC(=O)[C@H](Cc3ccc4ccccc4c3)NC(=O)[C@H](CCCNC(=N)N)NC(=O)[C@H](CCCNC(=N)N)NC(=O)[C@H]3CCCN3C(=O)CNC1=O)C(=O)N[C@@H](Cc1ccc(O)cc1)C(=O)N[C@@H](Cc1ccc(O)cc1)C(=O)N[C@@H](CCCCN)C(=O)N1CCC[C@@H]1C(=O)N1CCC[C@H]1C(=O)N[C@@H](Cc1ccc(O)cc1)C(=O)N[C@@H](CCCNC(=N)N)C(=O)N[C@@H](CCCNC(N)=O)C(=O)N2) [Example 59]	7.8 nM	
cyclo(TR[Cit]CRG[dP]RR[2Nal]CYQK[dP]P) (disulfide 4-11; SMILES C[C@@H](O)[C@@H]1NC(=O)[C@@H]2CCCN2C(=O)[C@H]2CCCN2C(=O)[C@H](CCCCN)NC(=O)[C@H](CCC(N)=O)NC(=O)[C@H](Cc2ccc(O)cc2)NC(=O)[C@@H]2CSSC[C@H](NC(=O)[C@H](CCCNC(N)=O)NC(=O)[C@H](CCCNC(=N)N)NC1=O)C(=O)N[C@@H](CCCNC(=N)N)C(=O)NCC(=O)N1CCC[C@@H]1C(=O)N[C@@H](CCCNC(=N)N)C(=O)N[C@@H](CCCNC(=N)N)C(=O)N[C@@H](Cc1ccc3ccccc3c1)C(=O)N2) [Example 67]	2.4 nM	
cyclo(ER[Cit]CRG[dP]RR[2Nal]CYQK[dP]P) (disulfide 4-11; SMILES N=C(N)NCCC[C@@H]1NC(=O)[C@@H]2CSSC[C@H](NC(=O)[C@H](Cc3ccc4ccccc4c3)NC(=O)[C@H](CCCNC(=N)N)NC(=O)[C@H](CCCNC(=N)N)NC(=O)[C@H]3CCCN3C(=O)CNC1=O)C(=O)N[C@@H](Cc1ccc(O)cc1)C(=O)N[C@@H](CCC(N)=O)C(=O)N[C@@H](CCCCN)C(=O)N1CCC[C@@H]1C(=O)N1CCC[C@H]1C(=O)N[C@@H](CCC(=O)O)C(=O)N[C@@H](CCCNC(=N)N)C(=O)N[C@@H](CCCNC(N)=O)C(=O)N2) [Example 68]	1.1 nM	
cyclo(YR[Cit]CRG[dP]RR[2Nal]CYHK[dP]P) (disulfide 4-11; SMILES N=C(N)NCCC[C@@H]1NC(=O)[C@@H]2CSSC[C@H](NC(=O)[C@H](Cc3ccc4ccccc4c3)NC(=O)[C@H](CCCNC(=N)N)NC(=O)[C@H](CCCNC(=N)N)NC(=O)[C@H]3CCCN3C(=O)CNC1=O)C(=O)N[C@@H](Cc1ccc(O)cc1)C(=O)N[C@@H](Cc1c[nH]cn1)C(=O)N[C@@H](CCCCN)C(=O)N1CCC[C@@H]1C(=O)N1CCC[C@H]1C(=O)N[C@@H](Cc1ccc(O)cc1)C(=O)N[C@@H](CCCNC(=N)N)C(=O)N[C@@H](CCCNC(N)=O)C(=O)N2) [Example 58]	10.5 nM	
cyclo(YR[Cit]CRG[dP]RR[2Nal]CYRK[dP]P) (disulfide 4-11; SMILES N=C(N)NCCC[C@@H]1NC(=O)[C@@H]2CSSC[C@H](NC(=O)[C@H](Cc3ccc4ccccc4c3)NC(=O)[C@H](CCCNC(=N)N)NC(=O)[C@H](CCCNC(=N)N)NC(=O)[C@H]3CCCN3C(=O)CNC1=O)C(=O)N[C@@H](Cc1ccc(O)cc1)C(=O)N[C@@H](CCCNC(=N)N)C(=O)N[C@@H](CCCCN)C(=O)N1CCC[C@@H]1C(=O)N1CCC[C@H]1C(=O)N[C@@H](Cc1ccc(O)cc1)C(=O)N[C@@H](CCCNC(=N)N)C(=O)N[C@@H](CCCNC(N)=O)C(=O)N2) [Example 57]	4.2 nM	
cyclo(HR[Cit]CRG[dP]RR[2Nal]CYQK[dP]P) (disulfide 4-11; SMILES N=C(N)NCCC[C@@H]1NC(=O)[C@@H]2CSSC[C@H](NC(=O)[C@H](Cc3ccc4ccccc4c3)NC(=O)[C@H](CCCNC(=N)N)NC(=O)[C@H](CCCNC(=N)N)NC(=O)[C@H]3CCCN3C(=O)CNC1=O)C(=O)N[C@@H](Cc1ccc(O)cc1)C(=O)N[C@@H](CCC(N)=O)C(=O)N[C@@H](CCCCN)C(=O)N1CCC[C@@H]1C(=O)N1CCC[C@H]1C(=O)N[C@@H](Cc1c[nH]cn1)C(=O)N[C@@H](CCCNC(=N)N)C(=O)N[C@@H](CCCNC(N)=O)C(=O)N2) [Example 64]	3.3 nM	
cyclo(IR[Cit]CRG[dP]RR[2Nal]CYQK[dP]P) (disulfide 4-11; SMILES CC[C@H](C)[C@@H]1NC(=O)[C@@H]2CCCN2C(=O)[C@H]2CCCN2C(=O)[C@H](CCCCN)NC(=O)[C@H](CCC(N)=O)NC(=O)[C@H](Cc2ccc(O)cc2)NC(=O)[C@@H]2CSSC[C@H](NC(=O)[C@H](CCCNC(N)=O)NC(=O)[C@H](CCCNC(=N)N)NC1=O)C(=O)N[C@@H](CCCNC(=N)N)C(=O)NCC(=O)N1CCC[C@@H]1C(=O)N[C@@H](CCCNC(=N)N)C(=O)N[C@@H](CCCNC(=N)N)C(=O)N[C@@H](Cc1ccc3ccccc3c1)C(=O)N2) [Example 65]	3.9 nM	
cyclo(YR[Cit]CRG[dP]RR[2Nal]CYQQ[dP]P) (disulfide 4-11; SMILES N=C(N)NCCC[C@@H]1NC(=O)[C@@H]2CSSC[C@H](NC(=O)[C@H](Cc3ccc4ccccc4c3)NC(=O)[C@H](CCCNC(=N)N)NC(=O)[C@H](CCCNC(=N)N)NC(=O)[C@H]3CCCN3C(=O)CNC1=O)C(=O)N[C@@H](Cc1ccc(O)cc1)C(=O)N[C@@H](CCC(N)=O)C(=O)N[C@@H](CCC(N)=O)C(=O)N1CCC[C@@H]1C(=O)N1CCC[C@H]1C(=O)N[C@@H](Cc1ccc(O)cc1)C(=O)N[C@@H](CCCNC(=N)N)C(=O)N[C@@H](CCCNC(N)=O)C(=O)N2) [Example 60]	0.18 nM	
cyclo(WR[Cit]CRG[dP]RR[2Nal]CYQK[dP]P) (disulfide 4-11; SMILES N=C(N)NCCC[C@@H]1NC(=O)[C@@H]2CSSC[C@H](NC(=O)[C@H](Cc3ccc4ccccc4c3)NC(=O)[C@H](CCCNC(=N)N)NC(=O)[C@H](CCCNC(=N)N)NC(=O)[C@H]3CCCN3C(=O)CNC1=O)C(=O)N[C@@H](Cc1ccc(O)cc1)C(=O)N[C@@H](CCC(N)=O)C(=O)N[C@@H](CCCCN)C(=O)N1CCC[C@@H]1C(=O)N1CCC[C@H]1C(=O)N[C@@H](Cc1c[nH]c3ccccc13)C(=O)N[C@@H](CCCNC(=N)N)C(=O)N[C@@H](CCCNC(N)=O)C(=O)N2) [Example 66]	3.8 nM	
cyclo(YR[Cit]CRG[dP]TR[2Nal]CYQK[dP]P) (disulfide 4-11; SMILES C[C@@H](O)[C@@H]1NC(=O)[C@H]2CCCN2C(=O)CNC(=O)[C@H](CCCNC(=N)N)NC(=O)[C@@H]2CSSC[C@H](NC(=O)[C@H](Cc3ccc4ccccc4c3)NC(=O)[C@H](CCCNC(=N)N)NC1=O)C(=O)N[C@@H](Cc1ccc(O)cc1)C(=O)N[C@@H](CCC(N)=O)C(=O)N[C@@H](CCCCN)C(=O)N1CCC[C@@H]1C(=O)N1CCC[C@H]1C(=O)N[C@@H](Cc1ccc(O)cc1)C(=O)N[C@@H](CCCNC(=N)N)C(=O)N[C@@H](CCCNC(N)=O)C(=O)N2) [Example 56]	0.74 nM	
cyclo(YR[Cit]FRRR[2Nal]FY[Cit]K[dP]P) (SMILES N=C(N)NCCC[C@@H]1NC(=O)[C@H](CCCNC(=N)N)NC(=O)[C@H](Cc2ccccc2)NC(=O)[C@H](CCCNC(N)=O)NC(=O)[C@H](CCCNC(=N)N)NC(=O)[C@H](Cc2ccc(O)cc2)NC(=O)[C@@H]2CCCN2C(=O)[C@H]2CCCN2C(=O)[C@H](CCCCN)NC(=O)[C@H](CCCNC(N)=O)NC(=O)[C@H](Cc2ccc(O)cc2)NC(=O)[C@H](Cc2ccccc2)NC(=O)[C@H](Cc2ccc3ccccc3c2)NC(=O)[C@H](CCCNC(=N)N)NC1=O) [Example 3]		1000 nM
cyclo(RR[Cit]CRG[dP]RR[2Nal]CYQK[dP]P) (disulfide 4-11; SMILES N=C(N)NCCC[C@@H]1NC(=O)[C@@H]2CSSC[C@H](NC(=O)[C@H](Cc3ccc4ccccc4c3)NC(=O)[C@H](CCCNC(=N)N)NC(=O)[C@H](CCCNC(=N)N)NC(=O)[C@H]3CCCN3C(=O)CNC1=O)C(=O)N[C@@H](Cc1ccc(O)cc1)C(=O)N[C@@H](CCC(N)=O)C(=O)N[C@@H](CCCCN)C(=O)N1CCC[C@@H]1C(=O)N1CCC[C@H]1C(=O)N[C@@H](CCCNC(=N)N)C(=O)N[C@@H](CCCNC(=N)N)C(=O)N[C@@H](CCCNC(N)=O)C(=O)N2) [Example 63]	2 nM	

From US20150087577A1 (POLYPHOR, published 2015)
